# Laboratory results: US20180155451A1 (published 2018)
# T1: FcγRIIa R (human, UniProt P12318 34-217)
# T1 construct: extracellular domain; also called FcgRIIa R type; 2aR
# T1 sequence (looked up): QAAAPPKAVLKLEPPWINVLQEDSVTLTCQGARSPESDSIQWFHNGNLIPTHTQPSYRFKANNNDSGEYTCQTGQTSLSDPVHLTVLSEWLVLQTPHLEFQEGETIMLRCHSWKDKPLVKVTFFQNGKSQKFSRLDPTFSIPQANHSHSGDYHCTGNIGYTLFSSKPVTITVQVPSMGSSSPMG
# Target: T1, FcγRIIa R
# Assay: SPR Biacore; vs GpH7-B3/GpL16-k0 =100
# Experimental: Analysis of interaction between objective antibody and the FcγR was carried out using Biacore T100 (GE Healthcare). HBS-EP+ (GE Healthcare) was used as the running buffer, and the measurement temperature was set to 25° C. Chips produced by immobilizing the antigen peptide by the amine coupling method to a Series S Sencor Chip CM5 (GE Healthcare), or alternatively, chips produced by allowing preliminarily biotinylated antigen peptides to interact with and immobilize onto a Series S Sensor Chip SA (certified) (GE Healthcare) were used. Antibodies of interest were captured onto an antigen peptide-immobilized chip, and allowed to interact to each FcγR diluted with running buffer. To regenerate and repeatedly use the chip, the antibodies captured on the chip were washed off by reacting 10 mM glycine-HCl, pH 1.5.
# The FcγR-binding activity of each antibody was assessed primarily using as an indicator the FcγR-binding activity and dissociation constant for FcγR.
row,Ho/Con_2aR,Binder
1,36.2 % of control,"GpH7-B3 variant A330_05P/GpL16-k0 (antibody, human IgG1, kappa, also called Ho Ab A330_05P) heavy: not shown light: DIVMTQSPLSLPVTPGEPASISCQASESLVHSNRNTYLHWYLQKPGQSPQLLIYKVSNRFSGVPDRFSGSGSGTDFTLKISRVEAEDVGVYYCSQNTHVPPTFGQGTKVEIERTVAAPSVFIFPPSDEQLKSGTASVVCLLNNFYPREAKVQWKVDNALQSGNSQESVTEQDSKDSTYSLSSTLTLSKADYEKHKVYACEVTHQGLSSPVTKSFNRGEC"
2,44.4 % of control,"GpH7-B3 variant G237_13S/GpL16-k0 (antibody, human IgG1, kappa, also called Ho Ab G237_13S) heavy: not shown light: DIVMTQSPLSLPVTPGEPASISCQASESLVHSNRNTYLHWYLQKPGQSPQLLIYKVSNRFSGVPDRFSGSGSGTDFTLKISRVEAEDVGVYYCSQNTHVPPTFGQGTKVEIERTVAAPSVFIFPPSDEQLKSGTASVVCLLNNFYPREAKVQWKVDNALQSGNSQESVTEQDSKDSTYSLSSTLTLSKADYEKHKVYACEVTHQGLSSPVTKSFNRGEC"
3,92.4 % of control,"GpH7-B3 variant E333_04F/GpL16-k0 (antibody, human IgG1, kappa, also called Ho Ab E333_04F) heavy: not shown light: DIVMTQSPLSLPVTPGEPASISCQASESLVHSNRNTYLHWYLQKPGQSPQLLIYKVSNRFSGVPDRFSGSGSGTDFTLKISRVEAEDVGVYYCSQNTHVPPTFGQGTKVEIERTVAAPSVFIFPPSDEQLKSGTASVVCLLNNFYPREAKVQWKVDNALQSGNSQESVTEQDSKDSTYSLSSTLTLSKADYEKHKVYACEVTHQGLSSPVTKSFNRGEC"
4,87.5 % of control,"GpH7-B3 variant A330_15Y/GpL16-k0 (antibody, human IgG1, kappa, also called Ho Ab A330_15Y) heavy: not shown light: DIVMTQSPLSLPVTPGEPASISCQASESLVHSNRNTYLHWYLQKPGQSPQLLIYKVSNRFSGVPDRFSGSGSGTDFTLKISRVEAEDVGVYYCSQNTHVPPTFGQGTKVEIERTVAAPSVFIFPPSDEQLKSGTASVVCLLNNFYPREAKVQWKVDNALQSGNSQESVTEQDSKDSTYSLSSTLTLSKADYEKHKVYACEVTHQGLSSPVTKSFNRGEC"
5,73.1 % of control,"GpH7-B3 variant G237_09D/GpL16-k0 (antibody, human IgG1, kappa, also called Ho Ab G237_09D) heavy: not shown light: DIVMTQSPLSLPVTPGEPASISCQASESLVHSNRNTYLHWYLQKPGQSPQLLIYKVSNRFSGVPDRFSGSGSGTDFTLKISRVEAEDVGVYYCSQNTHVPPTFGQGTKVEIERTVAAPSVFIFPPSDEQLKSGTASVVCLLNNFYPREAKVQWKVDNALQSGNSQESVTEQDSKDSTYSLSSTLTLSKADYEKHKVYACEVTHQGLSSPVTKSFNRGEC"
6,99.1 % of control,"GpH7-B3 variant A330_19Q/GpL16-k0 (antibody, human IgG1, kappa, also called Ho Ab A330_19Q) heavy: not shown light: DIVMTQSPLSLPVTPGEPASISCQASESLVHSNRNTYLHWYLQKPGQSPQLLIYKVSNRFSGVPDRFSGSGSGTDFTLKISRVEAEDVGVYYCSQNTHVPPTFGQGTKVEIERTVAAPSVFIFPPSDEQLKSGTASVVCLLNNFYPREAKVQWKVDNALQSGNSQESVTEQDSKDSTYSLSSTLTLSKADYEKHKVYACEVTHQGLSSPVTKSFNRGEC"
7,99.9 % of control,"GpH7-B3 variant E333_05P/GpL16-k0 (antibody, human IgG1, kappa, also called Ho Ab E333_05P) heavy: not shown light: DIVMTQSPLSLPVTPGEPASISCQASESLVHSNRNTYLHWYLQKPGQSPQLLIYKVSNRFSGVPDRFSGSGSGTDFTLKISRVEAEDVGVYYCSQNTHVPPTFGQGTKVEIERTVAAPSVFIFPPSDEQLKSGTASVVCLLNNFYPREAKVQWKVDNALQSGNSQESVTEQDSKDSTYSLSSTLTLSKADYEKHKVYACEVTHQGLSSPVTKSFNRGEC"
8,98.3 % of control,"GpH7-B3 variant E333_07I/GpL16-k0 (antibody, human IgG1, kappa, also called Ho Ab E333_07I) heavy: not shown light: DIVMTQSPLSLPVTPGEPASISCQASESLVHSNRNTYLHWYLQKPGQSPQLLIYKVSNRFSGVPDRFSGSGSGTDFTLKISRVEAEDVGVYYCSQNTHVPPTFGQGTKVEIERTVAAPSVFIFPPSDEQLKSGTASVVCLLNNFYPREAKVQWKVDNALQSGNSQESVTEQDSKDSTYSLSSTLTLSKADYEKHKVYACEVTHQGLSSPVTKSFNRGEC"
9,55.3 % of control,"GpH7-B3 variant G237_06M/GpL16-k0 (antibody, human IgG1, kappa, also called Ho Ab G237_06M) heavy: not shown light: DIVMTQSPLSLPVTPGEPASISCQASESLVHSNRNTYLHWYLQKPGQSPQLLIYKVSNRFSGVPDRFSGSGSGTDFTLKISRVEAEDVGVYYCSQNTHVPPTFGQGTKVEIERTVAAPSVFIFPPSDEQLKSGTASVVCLLNNFYPREAKVQWKVDNALQSGNSQESVTEQDSKDSTYSLSSTLTLSKADYEKHKVYACEVTHQGLSSPVTKSFNRGEC"
10,84 % of control,"GpH7-B3 variant G237_02A/GpL16-k0 (antibody, human IgG1, kappa, also called Ho Ab G237_02A) heavy: not shown light: DIVMTQSPLSLPVTPGEPASISCQASESLVHSNRNTYLHWYLQKPGQSPQLLIYKVSNRFSGVPDRFSGSGSGTDFTLKISRVEAEDVGVYYCSQNTHVPPTFGQGTKVEIERTVAAPSVFIFPPSDEQLKSGTASVVCLLNNFYPREAKVQWKVDNALQSGNSQESVTEQDSKDSTYSLSSTLTLSKADYEKHKVYACEVTHQGLSSPVTKSFNRGEC"
11,56.6 % of control,"GpH7-B3 variant G237_08L/GpL16-k0 (antibody, human IgG1, kappa, also called Ho Ab G237_08L) heavy: not shown light: DIVMTQSPLSLPVTPGEPASISCQASESLVHSNRNTYLHWYLQKPGQSPQLLIYKVSNRFSGVPDRFSGSGSGTDFTLKISRVEAEDVGVYYCSQNTHVPPTFGQGTKVEIERTVAAPSVFIFPPSDEQLKSGTASVVCLLNNFYPREAKVQWKVDNALQSGNSQESVTEQDSKDSTYSLSSTLTLSKADYEKHKVYACEVTHQGLSSPVTKSFNRGEC"
12,80 % of control,"GpH7-B3 variant G236_14T/GpL16-k0 (antibody, human IgG1, kappa, also called Ho Ab G236_14T) heavy: not shown light: DIVMTQSPLSLPVTPGEPASISCQASESLVHSNRNTYLHWYLQKPGQSPQLLIYKVSNRFSGVPDRFSGSGSGTDFTLKISRVEAEDVGVYYCSQNTHVPPTFGQGTKVEIERTVAAPSVFIFPPSDEQLKSGTASVVCLLNNFYPREAKVQWKVDNALQSGNSQESVTEQDSKDSTYSLSSTLTLSKADYEKHKVYACEVTHQGLSSPVTKSFNRGEC"
13,101 % of control,"GpH7-B3 variant A330_12R/GpL16-k0 (antibody, human IgG1, kappa, also called Ho Ab A330_12R) heavy: not shown light: DIVMTQSPLSLPVTPGEPASISCQASESLVHSNRNTYLHWYLQKPGQSPQLLIYKVSNRFSGVPDRFSGSGSGTDFTLKISRVEAEDVGVYYCSQNTHVPPTFGQGTKVEIERTVAAPSVFIFPPSDEQLKSGTASVVCLLNNFYPREAKVQWKVDNALQSGNSQESVTEQDSKDSTYSLSSTLTLSKADYEKHKVYACEVTHQGLSSPVTKSFNRGEC"
14,97.1 % of control,"GpH7-B3 variant E333_08L/GpL16-k0 (antibody, human IgG1, kappa, also called Ho Ab E333_08L) heavy: not shown light: DIVMTQSPLSLPVTPGEPASISCQASESLVHSNRNTYLHWYLQKPGQSPQLLIYKVSNRFSGVPDRFSGSGSGTDFTLKISRVEAEDVGVYYCSQNTHVPPTFGQGTKVEIERTVAAPSVFIFPPSDEQLKSGTASVVCLLNNFYPREAKVQWKVDNALQSGNSQESVTEQDSKDSTYSLSSTLTLSKADYEKHKVYACEVTHQGLSSPVTKSFNRGEC"
15,96.5 % of control,"GpH7-B3 variant E333_09D/GpL16-k0 (antibody, human IgG1, kappa, also called Ho Ab E333_09D) heavy: not shown light: DIVMTQSPLSLPVTPGEPASISCQASESLVHSNRNTYLHWYLQKPGQSPQLLIYKVSNRFSGVPDRFSGSGSGTDFTLKISRVEAEDVGVYYCSQNTHVPPTFGQGTKVEIERTVAAPSVFIFPPSDEQLKSGTASVVCLLNNFYPREAKVQWKVDNALQSGNSQESVTEQDSKDSTYSLSSTLTLSKADYEKHKVYACEVTHQGLSSPVTKSFNRGEC"
16,113 % of control,"GpH7-B3 variant G237_04F/GpL16-k0 (antibody, human IgG1, kappa, also called Ho Ab G237_04F) heavy: not shown light: DIVMTQSPLSLPVTPGEPASISCQASESLVHSNRNTYLHWYLQKPGQSPQLLIYKVSNRFSGVPDRFSGSGSGTDFTLKISRVEAEDVGVYYCSQNTHVPPTFGQGTKVEIERTVAAPSVFIFPPSDEQLKSGTASVVCLLNNFYPREAKVQWKVDNALQSGNSQESVTEQDSKDSTYSLSSTLTLSKADYEKHKVYACEVTHQGLSSPVTKSFNRGEC"
17,96.2 % of control,"GpH7-B3 variant E333_15Y/GpL16-k0 (antibody, human IgG1, kappa, also called Ho Ab E333_15Y) heavy: not shown light: DIVMTQSPLSLPVTPGEPASISCQASESLVHSNRNTYLHWYLQKPGQSPQLLIYKVSNRFSGVPDRFSGSGSGTDFTLKISRVEAEDVGVYYCSQNTHVPPTFGQGTKVEIERTVAAPSVFIFPPSDEQLKSGTASVVCLLNNFYPREAKVQWKVDNALQSGNSQESVTEQDSKDSTYSLSSTLTLSKADYEKHKVYACEVTHQGLSSPVTKSFNRGEC"
18,103 % of control,"GpH7-B3 variant E269_09D/GpL16-k0 (antibody, human IgG1, kappa, also called Ho Ab E269_09D) heavy: not shown light: DIVMTQSPLSLPVTPGEPASISCQASESLVHSNRNTYLHWYLQKPGQSPQLLIYKVSNRFSGVPDRFSGSGSGTDFTLKISRVEAEDVGVYYCSQNTHVPPTFGQGTKVEIERTVAAPSVFIFPPSDEQLKSGTASVVCLLNNFYPREAKVQWKVDNALQSGNSQESVTEQDSKDSTYSLSSTLTLSKADYEKHKVYACEVTHQGLSSPVTKSFNRGEC"
19,106 % of control,"GpH7-B3 variant A330_11K/GpL16-k0 (antibody, human IgG1, kappa, also called Ho Ab A330_11K) heavy: not shown light: DIVMTQSPLSLPVTPGEPASISCQASESLVHSNRNTYLHWYLQKPGQSPQLLIYKVSNRFSGVPDRFSGSGSGTDFTLKISRVEAEDVGVYYCSQNTHVPPTFGQGTKVEIERTVAAPSVFIFPPSDEQLKSGTASVVCLLNNFYPREAKVQWKVDNALQSGNSQESVTEQDSKDSTYSLSSTLTLSKADYEKHKVYACEVTHQGLSSPVTKSFNRGEC"
20,73.6 % of control,"GpH7-B3 variant G237_18N/GpL16-k0 (antibody, human IgG1, kappa, also called Ho Ab G237_18N) heavy: not shown light: DIVMTQSPLSLPVTPGEPASISCQASESLVHSNRNTYLHWYLQKPGQSPQLLIYKVSNRFSGVPDRFSGSGSGTDFTLKISRVEAEDVGVYYCSQNTHVPPTFGQGTKVEIERTVAAPSVFIFPPSDEQLKSGTASVVCLLNNFYPREAKVQWKVDNALQSGNSQESVTEQDSKDSTYSLSSTLTLSKADYEKHKVYACEVTHQGLSSPVTKSFNRGEC"
21,22.5 % of control,"GpH7-B3 variant G237_10E/GpL16-k0 (antibody, human IgG1, kappa, also called Ho Ab G237_10E) heavy: not shown light: DIVMTQSPLSLPVTPGEPASISCQASESLVHSNRNTYLHWYLQKPGQSPQLLIYKVSNRFSGVPDRFSGSGSGTDFTLKISRVEAEDVGVYYCSQNTHVPPTFGQGTKVEIERTVAAPSVFIFPPSDEQLKSGTASVVCLLNNFYPREAKVQWKVDNALQSGNSQESVTEQDSKDSTYSLSSTLTLSKADYEKHKVYACEVTHQGLSSPVTKSFNRGEC"
